Consider one substance from US20070219354A1.

The target of the assay is APP695-derived polypeptide (SEQ. ID. NO.:28) having the modified sequence NLDV (SEQ. ID. NO.:7) (Homo sapiens (Human)) (UniProt P05067). The assay can be described thus: cell-based or functional assay.

“β-secretase of the HEK293T cells used in Example 4 (from UniProt P56817 46-501) (enzyme)” displayed an Aβ production in HEK293T cells (IP/Western, densitometry) (times the level of wild type APP695) above 3.
